Patent publication US20260167699A1 (Chugai, published 2026)

Experiments:
Experiment in all cases: SPR (Biacore); binding relative to GpH7-A5/GpH7-B3/GpL16-k0 x100;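 further: antibodies captured on a chip surface, soluble FcγR flowed over in HBS-EP+ running buffer at 25 °C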
[1] = molecular target: T1, FcγRIa extracellular domain, C-terminal His tag (human, UniProt P12314 16-292)
T1 construct: extracellular domain; also called 1a
Method: (§1) The antibody of interest was analyzed for its interaction with FcγR using a BiaCore™ T100, BiaCore™ A100, or BiaCore™ 4000 surface plasmon resonance system (GE Healthcare Japan Corp.). The running buffer used was HBS-EP+ (GE Healthcare Japan Corp.). The assay temperature was set to 25° C. The sensor chips used were: a chip prepared by immobilizing antigenic peptides onto Series S Sensor Chip CM5 (GE Healthcare Japan Corp.) by the amine coupling method; a chip prepared by immobilizing antigenic peptides biotinylated in advance onto Series S Sensor Chip SA (certified) (GE Healthcare Japan Corp.) through their interaction; a chip prepared by immobilizing protein L (ACTIGEN, BioVision, Inc.) onto Series S Sensor Chip CM5 (GE Healthcare Japan Corp.); and a chip prepared by immobilizing protein A/G (Thermo Fisher Scientific K.K.) onto Series S Sensor Chip CM5 (GE Healthcare Japan Corp.). The antibody of interest was captured onto any of these chips and allowed to interact with FcγR diluted with a running buffer. The antibody captured on the chip was washed off through the reaction of 10 mM glycine-HCl (pH 1.5) to regenerate the chip, which was repetitively used.

[2] = molecular target: T2, FcγRIIa(R) extracellular domain, C-terminal His tag (human, UniProt P12318 34-217)
T2 construct: extracellular domain; Allotype R131; also called 2aR
T2 sequence: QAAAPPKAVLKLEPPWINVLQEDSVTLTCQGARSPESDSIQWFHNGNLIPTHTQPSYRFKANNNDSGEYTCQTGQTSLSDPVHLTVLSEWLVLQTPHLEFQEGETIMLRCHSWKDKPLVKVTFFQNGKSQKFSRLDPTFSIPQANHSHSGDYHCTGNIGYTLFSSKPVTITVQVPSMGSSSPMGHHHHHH
Method: as §1

[3] = molecular target: T3, FcγRIIa(H) extracellular domain, C-terminal His tag (human, UniProt P12318 34-217)
T3 construct: extracellular domain; Allotype H131; also called 2aH
T3 sequence: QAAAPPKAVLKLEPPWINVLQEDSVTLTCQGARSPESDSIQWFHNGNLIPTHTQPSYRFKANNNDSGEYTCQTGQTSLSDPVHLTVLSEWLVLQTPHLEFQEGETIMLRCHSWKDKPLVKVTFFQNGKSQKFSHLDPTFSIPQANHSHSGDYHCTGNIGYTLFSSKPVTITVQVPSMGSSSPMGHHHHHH
Method: as §1

[4] = molecular target: T4, FcγRIIb extracellular domain, C-terminal His tag (human, UniProt P31994 43-217)
T4 construct: extracellular domain; also called 2b
T4 sequence: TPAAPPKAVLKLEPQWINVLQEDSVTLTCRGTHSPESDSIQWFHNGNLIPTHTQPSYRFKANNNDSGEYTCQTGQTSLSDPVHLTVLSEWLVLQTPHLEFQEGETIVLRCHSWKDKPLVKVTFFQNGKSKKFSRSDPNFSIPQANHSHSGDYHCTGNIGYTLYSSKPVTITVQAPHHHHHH
Method: as §1

[5] = molecular target: T5, FcγRIIIa extracellular domain, C-terminal His tag (human, UniProt P08637 17-208)
T5 construct: extracellular domain; also called 3a
T5 sequence (P08637 other isoform, or with tags, fused parts or gaps): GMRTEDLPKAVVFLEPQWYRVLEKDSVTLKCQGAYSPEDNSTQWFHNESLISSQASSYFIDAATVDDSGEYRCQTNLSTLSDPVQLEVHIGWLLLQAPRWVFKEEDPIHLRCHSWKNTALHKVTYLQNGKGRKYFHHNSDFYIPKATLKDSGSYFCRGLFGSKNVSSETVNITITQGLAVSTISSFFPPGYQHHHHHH
Method: as §1

T1 sequence (P12314 other isoform, or with tags, fused parts or gaps): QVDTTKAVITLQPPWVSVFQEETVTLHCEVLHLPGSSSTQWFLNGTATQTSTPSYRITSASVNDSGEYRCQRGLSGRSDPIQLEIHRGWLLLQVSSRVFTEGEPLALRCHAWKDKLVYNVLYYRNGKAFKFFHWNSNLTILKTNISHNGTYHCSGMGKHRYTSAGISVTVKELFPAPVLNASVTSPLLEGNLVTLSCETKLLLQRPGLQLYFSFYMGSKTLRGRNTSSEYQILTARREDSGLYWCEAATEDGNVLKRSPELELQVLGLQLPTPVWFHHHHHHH

Binder | He/Con 1a [1] [%] | He/Con 2aR [2] [%] | He/Con 2aH [3] [%] | He/Con 2b [4] [%] | He/Con 3a [5] [%]
GpH7-A5/GpH7-B3 variant P331_07I/GpL16-k0 (antibody, human IgG1, kappa, He Ab: anti-glypican 3 IgG1 heterodimer, only the GpH7-B3 chain mutated; position in EU numbering; also called He Ab) heavy 1: not shown heavy 2: not shown light: DIVMTQSPLSLPVTPGEPASISCQASESLVHSNRNTYLHWYLQKPGQSPQLLIYKVSNRFSGVPDRFSGSGSGTDFTLKISRVEAEDVGVYYCSQNTHVPPTFGQGTKVEIERTVAAPSVFIFPPSDEQLKSGTASVVCLLNNFYPREAKVQWKVDNALQSGNSQESVTEQDSKDSTYSLSSTLTLSKADYEKHKVYACEVTHQGLSSPVTKSFNRGEC | 106 | 109 | 80.1 | 127 | 60.4
GpH7-A5/GpH7-B3 variant P331_20W/GpL16-k0 (antibody, human IgG1, kappa, He Ab: anti-glypican 3 IgG1 heterodimer, only the GpH7-B3 chain mutated; position in EU numbering; also called He Ab) heavy 1: not shown heavy 2: not shown light: DIVMTQSPLSLPVTPGEPASISCQASESLVHSNRNTYLHWYLQKPGQSPQLLIYKVSNRFSGVPDRFSGSGSGTDFTLKISRVEAEDVGVYYCSQNTHVPPTFGQGTKVEIERTVAAPSVFIFPPSDEQLKSGTASVVCLLNNFYPREAKVQWKVDNALQSGNSQESVTEQDSKDSTYSLSSTLTLSKADYEKHKVYACEVTHQGLSSPVTKSFNRGEC | 107 | 109 | 85.8 | 123 | 71.9
GpH7-A5/GpH7-B3 variant P331_19Q/GpL16-k0 (antibody, human IgG1, kappa, He Ab: anti-glypican 3 IgG1 heterodimer, only the GpH7-B3 chain mutated; position in EU numbering; also called He Ab) heavy 1: not shown heavy 2: not shown light: DIVMTQSPLSLPVTPGEPASISCQASESLVHSNRNTYLHWYLQKPGQSPQLLIYKVSNRFSGVPDRFSGSGSGTDFTLKISRVEAEDVGVYYCSQNTHVPPTFGQGTKVEIERTVAAPSVFIFPPSDEQLKSGTASVVCLLNNFYPREAKVQWKVDNALQSGNSQESVTEQDSKDSTYSLSSTLTLSKADYEKHKVYACEVTHQGLSSPVTKSFNRGEC | 108 | 96.1 | 91.6 | 94 | 73.9
GpH7-A5/GpH7-B3 variant P331_15Y/GpL16-k0 (antibody, human IgG1, kappa, He Ab: anti-glypican 3 IgG1 heterodimer, only the GpH7-B3 chain mutated; position in EU numbering; also called P331_I5Y; He Ab) heavy 1: not shown heavy 2: not shown light: DIVMTQSPLSLPVTPGEPASISCQASESLVHSNRNTYLHWYLQKPGQSPQLLIYKVSNRFSGVPDRFSGSGSGTDFTLKISRVEAEDVGVYYCSQNTHVPPTFGQGTKVEIERTVAAPSVFIFPPSDEQLKSGTASVVCLLNNFYPREAKVQWKVDNALQSGNSQESVTEQDSKDSTYSLSSTLTLSKADYEKHKVYACEVTHQGLSSPVTKSFNRGEC | 109 | 112 | 89 | 127 | 74.9
GpH7-A5/GpH7-B3 variant S324_01G/GpL16-k0 (antibody, human IgG1, kappa, He Ab: anti-glypican 3 IgG1 heterodimer, only the GpH7-B3 chain mutated; position in EU numbering; also called He Ab) heavy 1: not shown heavy 2: not shown light: DIVMTQSPLSLPVTPGEPASISCQASESLVHSNRNTYLHWYLQKPGQSPQLLIYKVSNRFSGVPDRFSGSGSGTDFTLKISRVEAEDVGVYYCSQNTHVPPTFGQGTKVEIERTVAAPSVFIFPPSDEQLKSGTASVVCLLNNFYPREAKVQWKVDNALQSGNSQESVTEQDSKDSTYSLSSTLTLSKADYEKHKVYACEVTHQGLSSPVTKSFNRGEC | 93.2 | 94.4 | 110 | 106 | 114
GpH7-A5/GpH7-B3 variant P331_09D/GpL16-k0 (antibody, human IgG1, kappa, He Ab: anti-glypican 3 IgG1 heterodimer, only the GpH7-B3 chain mutated; position in EU numbering; also called He Ab) heavy 1: not shown heavy 2: not shown light: DIVMTQSPLSLPVTPGEPASISCQASESLVHSNRNTYLHWYLQKPGQSPQLLIYKVSNRFSGVPDRFSGSGSGTDFTLKISRVEAEDVGVYYCSQNTHVPPTFGQGTKVEIERTVAAPSVFIFPPSDEQLKSGTASVVCLLNNFYPREAKVQWKVDNALQSGNSQESVTEQDSKDSTYSLSSTLTLSKADYEKHKVYACEVTHQGLSSPVTKSFNRGEC | 109 | 101 | 93.6 | 104 | 71.6
GpH7-A5/GpH7-B3 variant P331_11K/GpL16-k0 (antibody, human IgG1, kappa, He Ab: anti-glypican 3 IgG1 heterodimer, only the GpH7-B3 chain mutated; position in EU numbering; also called He Ab) heavy 1: not shown heavy 2: not shown light: DIVMTQSPLSLPVTPGEPASISCQASESLVHSNRNTYLHWYLQKPGQSPQLLIYKVSNRFSGVPDRFSGSGSGTDFTLKISRVEAEDVGVYYCSQNTHVPPTFGQGTKVEIERTVAAPSVFIFPPSDEQLKSGTASVVCLLNNFYPREAKVQWKVDNALQSGNSQESVTEQDSKDSTYSLSSTLTLSKADYEKHKVYACEVTHQGLSSPVTKSFNRGEC | 100 | 94.6 | 83.7 | 93.9 | 61.8
GpH7-A5/GpH7-B3 variant S324_06M/GpL16-k0 (antibody, human IgG1, kappa, He Ab: anti-glypican 3 IgG1 heterodimer, only the GpH7-B3 chain mutated; position in EU numbering; also called He Ab) heavy 1: not shown heavy 2: not shown light: DIVMTQSPLSLPVTPGEPASISCQASESLVHSNRNTYLHWYLQKPGQSPQLLIYKVSNRFSGVPDRFSGSGSGTDFTLKISRVEAEDVGVYYCSQNTHVPPTFGQGTKVEIERTVAAPSVFIFPPSDEQLKSGTASVVCLLNNFYPREAKVQWKVDNALQSGNSQESVTEQDSKDSTYSLSSTLTLSKADYEKHKVYACEVTHQGLSSPVTKSFNRGEC | 104 | 118 | 122 | 126 | 124
GpH7-A5/GpH7-B3 variant P331_13S/GpL16-k0 (antibody, human IgG1, kappa, He Ab: anti-glypican 3 IgG1 heterodimer, only the GpH7-B3 chain mutated; position in EU numbering; also called He Ab) heavy 1: not shown heavy 2: not shown light: DIVMTQSPLSLPVTPGEPASISCQASESLVHSNRNTYLHWYLQKPGQSPQLLIYKVSNRFSGVPDRFSGSGSGTDFTLKISRVEAEDVGVYYCSQNTHVPPTFGQGTKVEIERTVAAPSVFIFPPSDEQLKSGTASVVCLLNNFYPREAKVQWKVDNALQSGNSQESVTEQDSKDSTYSLSSTLTLSKADYEKHKVYACEVTHQGLSSPVTKSFNRGEC | 108 | 104 | 94 | 107 | 80.9
GpH7-A5/GpH7-B3 variant S324_02A/GpL16-k0 (antibody, human IgG1, kappa, He Ab: anti-glypican 3 IgG1 heterodimer, only the GpH7-B3 chain mutated; position in EU numbering; also called He Ab) heavy 1: not shown heavy 2: not shown light: DIVMTQSPLSLPVTPGEPASISCQASESLVHSNRNTYLHWYLQKPGQSPQLLIYKVSNRFSGVPDRFSGSGSGTDFTLKISRVEAEDVGVYYCSQNTHVPPTFGQGTKVEIERTVAAPSVFIFPPSDEQLKSGTASVVCLLNNFYPREAKVQWKVDNALQSGNSQESVTEQDSKDSTYSLSSTLTLSKADYEKHKVYACEVTHQGLSSPVTKSFNRGEC | 96.9 | 99.9 | 114 | 102 | 113
GpH7-A5/GpH7-B3 variant P331_08L/GpL16-k0 (antibody, human IgG1, kappa, He Ab: anti-glypican 3 IgG1 heterodimer, only the GpH7-B3 chain mutated; position in EU numbering; also called He Ab) heavy 1: not shown heavy 2: not shown light: DIVMTQSPLSLPVTPGEPASISCQASESLVHSNRNTYLHWYLQKPGQSPQLLIYKVSNRFSGVPDRFSGSGSGTDFTLKISRVEAEDVGVYYCSQNTHVPPTFGQGTKVEIERTVAAPSVFIFPPSDEQLKSGTASVVCLLNNFYPREAKVQWKVDNALQSGNSQESVTEQDSKDSTYSLSSTLTLSKADYEKHKVYACEVTHQGLSSPVTKSFNRGEC | 105 | 101 | 85.9 | 106 | 66
GpH7-A5/GpH7-B3 variant P331_10E/GpL16-k0 (antibody, human IgG1, kappa, He Ab: anti-glypican 3 IgG1 heterodimer, only the GpH7-B3 chain mutated; position in EU numbering; also called He Ab) heavy 1: not shown heavy 2: not shown light: DIVMTQSPLSLPVTPGEPASISCQASESLVHSNRNTYLHWYLQKPGQSPQLLIYKVSNRFSGVPDRFSGSGSGTDFTLKISRVEAEDVGVYYCSQNTHVPPTFGQGTKVEIERTVAAPSVFIFPPSDEQLKSGTASVVCLLNNFYPREAKVQWKVDNALQSGNSQESVTEQDSKDSTYSLSSTLTLSKADYEKHKVYACEVTHQGLSSPVTKSFNRGEC | 108 | 112 | 90.1 | 128 | 68.7
GpH7-A5/GpH7-B3 variant P331_14T/GpL16-k0 (antibody, human IgG1, kappa, He Ab: anti-glypican 3 IgG1 heterodimer, only the GpH7-B3 chain mutated; position in EU numbering; also called He Ab) heavy 1: not shown heavy 2: not shown light: DIVMTQSPLSLPVTPGEPASISCQASESLVHSNRNTYLHWYLQKPGQSPQLLIYKVSNRFSGVPDRFSGSGSGTDFTLKISRVEAEDVGVYYCSQNTHVPPTFGQGTKVEIERTVAAPSVFIFPPSDEQLKSGTASVVCLLNNFYPREAKVQWKVDNALQSGNSQESVTEQDSKDSTYSLSSTLTLSKADYEKHKVYACEVTHQGLSSPVTKSFNRGEC | 102 | 104 | 86.5 | 111 | 67.8
GpH7-A5/GpH7-B3 variant P331_16H/GpL16-k0 (antibody, human IgG1, kappa, He Ab: anti-glypican 3 IgG1 heterodimer, only the GpH7-B3 chain mutated; position in EU numbering; also called He Ab) heavy 1: not shown heavy 2: not shown light: DIVMTQSPLSLPVTPGEPASISCQASESLVHSNRNTYLHWYLQKPGQSPQLLIYKVSNRFSGVPDRFSGSGSGTDFTLKISRVEAEDVGVYYCSQNTHVPPTFGQGTKVEIERTVAAPSVFIFPPSDEQLKSGTASVVCLLNNFYPREAKVQWKVDNALQSGNSQESVTEQDSKDSTYSLSSTLTLSKADYEKHKVYACEVTHQGLSSPVTKSFNRGEC | 105 | 113 | 87.5 | 128 | 73.4
GpH7-A5/GpH7-B3 variant P331_18N/GpL16-k0 (antibody, human IgG1, kappa, He Ab: anti-glypican 3 IgG1 heterodimer, only the GpH7-B3 chain mutated; position in EU numbering; also called He Ab) heavy 1: not shown heavy 2: not shown light: DIVMTQSPLSLPVTPGEPASISCQASESLVHSNRNTYLHWYLQKPGQSPQLLIYKVSNRFSGVPDRFSGSGSGTDFTLKISRVEAEDVGVYYCSQNTHVPPTFGQGTKVEIERTVAAPSVFIFPPSDEQLKSGTASVVCLLNNFYPREAKVQWKVDNALQSGNSQESVTEQDSKDSTYSLSSTLTLSKADYEKHKVYACEVTHQGLSSPVTKSFNRGEC | 106 | 104 | 87.2 | 110 | 67.1
